Results reported in US10280205B2, “Method for treating cancer with an activated T lymphocyte that selectively recognizes a cancer cell consisting of specific peptide” (immatics biotechnologies GmbH, priority 2015, dated 2019).

The substances below were run against HLA-A*02:01 (Homo sapiens, UniProt P04439, D140Y/D185E/D98H/E176V/E277Q/G131W/G231S/I119V/I121R/I166T/I218V/L300P/L318F/N151K/N90K/P208A/P217A/Q86G/Q94H/R138H/R169H/T345S) (assay: MHC binding assay: UV-ligand exchange with beta2m ELISA (exchange yield)). Conditions: binding to HLA-A*02:01, β2m ELISA.
From the text: Candidate peptides for T cell based therapies according to the present invention were further tested for their MHC binding capacity (affinity). The individual peptide-MHC complexes were produced by UV-ligand exchange, where a UV-sensitive peptide is cleaved upon UV-irradiation, and exchanged with the peptide of interest as analyzed. Only peptide candidates that can effectively bind and stabilize the peptide-receptive MHC molecules prevent dissociation of the MHC complexes. To determine the yield of the exchange reaction, an ELISA was performed based on the detection of the light chain (β2m) of stabilized MHC complexes. The assay was performed as generally described in Rodenko et al. (Rodenko et al., 2006).
96 well MAXISorp plates (NUNC) were coated over night with 2 ug/ml streptavidin in PBS at room temperature, washed 4× and blocked for 1 h at 37° C. in 2% BSA containing blocking buffer. […] Peptide-MHC monomers of the UV-exchange reaction were diluted 100 fold in blocking buffer. Samples were incubated for 1h at 37° C., washed four times, incubated with 2 ug/ml HRP conjugated anti-β2m for 1h at 37° C., washed again and detected with TMB solution that is stopped with […]. Absorption was measured at 450 nm. Candidate peptides that show a high exchange yield (preferably higher than 50%, most preferred higher than 75%) are generally preferred for a generation and production of antibodies or fragments thereof, and/or T cell receptors or fragments thereof, as they show sufficient avidity to the MHC molecules and prevent dissociation of the MHC complexes.

Peptide exchange (MHC class I binding score, peptide exchange yield) | Substance
“+++” (≥50 = +++) | 465 (QLCDLNAEL; listed as Homo sapiens) [compound 465]
“+++” (≥50 = +++) | 592 (RLLSAAENFL; listed as Homo sapiens) [compound 592]
“+++” (≥50 = +++) | 577 (VMFEDGVLMRL; listed as Homo sapiens) [compound 577]
“+++” (≥50 = +++) | 573 (ILVANAIVGV; listed as Homo sapiens) [compound 573]
“+++” (≥50 = +++) | 399 (YLFEPLYHV; listed as Homo sapiens) [compound 399]
“++” (≥20% = ++) | 234 (ALMEDTGRQML; listed as Homo sapiens) [compound 234]
“++++” (≥75% = ++++) | 77 (ILVEADGAWVV; listed as Homo sapiens) [compound 77]
“++” (≥20% = ++) | 574 (YLLQEPPRTV; listed as Homo sapiens) [compound 574]
“++” (≥20% = ++) | 207 (GLTSTNAEV; listed as Homo sapiens) [compound 207]
“+++” (≥50 = +++) | 311 (RLYTGMHTV; listed as Homo sapiens) [compound 311]
“+++” (≥50 = +++) | 240 (ILLEQAFYL; listed as Homo sapiens) [compound 240]
“++” (≥20% = ++) | 403 (KLYDRILRV; listed as Homo sapiens) [compound 403]
“+++” (≥50 = +++) | 554 (LLMPSSEDLLL; listed as Homo sapiens) [compound 554]
“++” (≥20% = ++) | 124 (ALYETELADA; listed as Homo sapiens) [compound 124]
“+++” (≥50 = +++) | 558 (GLLENIPRV; listed as Homo sapiens) [compound 558]
“+++” (≥50 = +++) | 98 (LIIDQADIYL; listed as Homo sapiens) [compound 98]
“+++” (≥50 = +++) | 479 (SLFGNSGILENV; listed as Homo sapiens) [compound 479]
“++” (≥20% = ++) | 373 (SLLEDKGLAEV; listed as Homo sapiens) [compound 373]
“+++” (≥50 = +++) | 325 (FIMPATVADATAV; listed as Homo sapiens) [compound 325]
“++++” (≥75% = ++++) | 104 (STMEQNFLL; listed as Homo sapiens) [compound 104]
“++” (≥20% = ++) | 318 (GLINTGVLSV; listed as Homo sapiens) [compound 318]

Peptide exchange (MHC class I binding score, peptide exchange yield) | Substance
“+++” (≥50 = +++) | 344 (YLQDQHLLLTV; listed as Homo sapiens) [compound 344]
“+++” (≥50 = +++) | 467 (FLAKDFNFL; listed as Homo sapiens) [compound 467]
“+++” (≥50 = +++) | 391 (YVYPQRLNFV; listed as Homo sapiens) [compound 391]
“++++” (≥75% = ++++) | 611 (YLLDDGTLVV; listed as Homo sapiens) [compound 611]
“++++” (≥75% = ++++) | 119 (FLYIGDIVSL; listed as Homo sapiens) [compound 119]
“++” (≥20% = ++) | 128 (YLFDDPLSAV; listed as Homo sapiens) [compound 128]
“+++” (≥50 = +++) | 350 (ALLDVTHSELTV; listed as Homo sapiens) [compound 350]
“+++” (≥50 = +++) | 20 (RMIEYFIDV; listed as Homo sapiens) [compound 20]
“+++” (≥50 = +++) | 518 (KLNAEVACV; listed as Homo sapiens) [compound 518]
“++” (≥20% = ++) | 548 (ALWENPESGEL; listed as Homo sapiens) [compound 548]
“+++” (≥50 = +++) | 165 (SLLDEIRAV; listed as Homo sapiens) [compound 165]
“+++” (≥50 = +++) | 454 (KLPPPPPQA; listed as Homo sapiens) [compound 454]
“+++” (≥50 = +++) | 30 (LILDWVPYI; listed as Homo sapiens) [compound 30]
“+++” (≥50 = +++) | 71 (GILARIASV; listed as Homo sapiens) [compound 71]
“+++” (≥50 = +++) | 575 (YLISQVEGHQV; listed as Homo sapiens) [compound 575]
“++” (≥20% = ++) | 274 (SLLFSLFEA; listed as Homo sapiens) [compound 274]
“++++” (≥75% = ++++) | 168 (KILDADIQL; listed as Homo sapiens) [compound 168]
“++++” (≥75% = ++++) | 196 (YLYSVEIKL; listed as Homo sapiens) [compound 196]
“+++” (≥50 = +++) | 441 (ALLENPKMEL; listed as Homo sapiens) [compound 441]
“++” (≥20% = ++) | 432 (TLIEESAKV; listed as Homo sapiens) [compound 432]
“+++” (≥50 = +++) | 59 (IMEDIILTL; listed as Homo sapiens) [compound 59]

Peptide exchange (MHC class I binding score, peptide exchange yield) | Substance
“++++” (≥75% = ++++) | 178 (ALTEIAFVV; listed as Homo sapiens) [compound 178]
“+++” (≥50 = +++) | 546 (VMIAGKVAVV; listed as Homo sapiens) [compound 546]
“+++” (≥50 = +++) | 356 (KLLGKLPEL; listed as Homo sapiens) [compound 356]
“+++” (≥50 = +++) | 184 (YLMDINGKMWL; listed as Homo sapiens) [compound 184]
“++” (≥20% = ++) | 140 (YMDAPKAAL; listed as Homo sapiens) [compound 140]
“+++” (≥50 = +++) | 39 (SVAPNLPAV; listed as Homo sapiens) [compound 39]
“+++” (≥50 = +++) | 17 (GLLPGDRLVSV; listed as Homo sapiens) [compound 17]
“+++” (≥50 = +++) | 531 (YTLPIASSIRL; listed as Homo sapiens) [compound 531]
“+++” (≥50 = +++) | 508 (ILAQEQLVVGV; listed as Homo sapiens) [compound 508]
“++” (≥20% = ++) | 64 (YAAPGGLIGV; listed as Homo sapiens) [compound 64]
“++” (≥20% = ++) | 242 (AIAYILQGV; listed as Homo sapiens) [compound 242]
“++++” (≥75% = ++++) | 339 (GLWEIENNPTVKA; listed as Homo sapiens) [compound 339]
“+++” (≥50 = +++) | 331 (KVDTVWVNV; listed as Homo sapiens) [compound 331]
“+++” (≥50 = +++) | 306 (ALVNVQIPL; listed as Homo sapiens) [compound 306]
“+++” (≥50 = +++) | 541 (SMLEPVPEL; listed as Homo sapiens) [compound 541]
“++” (≥20% = ++) | 570 (ALANQIPTV; listed as Homo sapiens) [compound 570]
“+++” (≥50 = +++) | 125 (VQIHQVAQV; listed as Homo sapiens) [compound 125]
“+++” (≥50 = +++) | 101 (ILVGGGALATV; listed as Homo sapiens) [compound 101]
“+++” (≥50 = +++) | 223 (ALLENIALYL; listed as Homo sapiens) [compound 223]
